T1: recombinant human sIL-6R (human, UniProt P08887 20-358, limits assumed)
T1 construct: Bought soluble receptor; also called human soluble IL6R; IL6R alone
T1 sequence (looked up): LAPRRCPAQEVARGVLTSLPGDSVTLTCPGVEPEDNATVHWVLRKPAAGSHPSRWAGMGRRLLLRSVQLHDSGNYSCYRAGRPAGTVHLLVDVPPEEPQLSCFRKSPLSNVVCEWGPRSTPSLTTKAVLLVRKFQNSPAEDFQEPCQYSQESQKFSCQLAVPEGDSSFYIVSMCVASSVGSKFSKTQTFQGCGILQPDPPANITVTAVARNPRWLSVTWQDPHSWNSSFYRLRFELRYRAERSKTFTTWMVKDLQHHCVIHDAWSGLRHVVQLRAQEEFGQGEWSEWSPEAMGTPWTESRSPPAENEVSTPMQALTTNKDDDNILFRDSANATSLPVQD


Assays:
[1] = biological target: T2, recombinant human TNF-α (human, UniProt P01375 77-233); experiment: sandwich ELISA: Xceptor captured on anti-human IgG-Fc, 2 ng/ml TNF-α, anti-human TNF-α-biotin
T2 construct: also called rhTNF-α
Experimental: Added to each well of a 96-well plate was 100 μl goat anti-human IgG-Fc (ICN Pharmaceuticals, Costa Mesa, Calif.) from a 2 μg/ml solution in PBS, pH 7.2-7.4. The plate was covered, and incubated overnight at 4° C. After washing four times with PBS-T, 250 μl Blocking buffer was added to each well, the plate was covered, and incubated at room temperature for 2 hours (or at 4° C. overnight). After washing the plate three times with PBS-T, added in duplicate wells to the anti-human IgG-Fc coated plate was 100 μl/well Xceptor TNFRSF1B::anti-HIL6 samples, positive controls Enbrel® (etanercept) and recombinant human TNFR2 (TNFRSF1B)-Fc chimera (R&D Systems, Minneapolis, Minn.), and negative controls human IgG or human gp130-Fc chimera (R&D Systems), each serially diluted three-fold in Working buffer starting at 300 ng/ml, the plate was covered, and incubated at room temperature for about 1 to 2 hours. After washing the plate five times with PBS-T, added in duplicate wells was 100 μl/well recombinant human TNF-α (R&D Systems) from a 2 ng/ml solution in Working buffer, the plate was covered, and incubated at room temperature for about 1 to 2 hours. After washing the plate five times with PBS-T, added 100 μl/well anti-human TNF-α-biotin (R&D Systems) from a 200 ng/ml solution in Working buffer, the plate was covered, and incubated at room temperature for about 1 to 2 hours. After washing the plate five times with PBS-T, 100 μl per well horse radish peroxidase-conjugated streptavidin (Jackson ImmunoResearch, West Grove, Pa.) diluted 1:1,000 in Working buffer was added, the plate was covered, and incubated at room temperature for 30 minutes. After washing the plate six times with PBS-T, 100 μl per well 3,3,5,5-tetramentylbenzidine (TMB) substrate solution (Pierce, Rockford, Ill.) was added for about 3 to 5 minutes and then the reaction was stopped with 50 μl Stop buffer (1N H₂SO₄) per well. The absorbance of each well was read at 450 nm.

[2] = biological target: T1, recombinant human sIL-6R; experiment: sandwich ELISA: Xceptor captured on anti-human IgG-Fc, sIL-6R, anti-human IL-6R-biotin
Experimental: Added to each well of a 96-well plate was 100 μl goat anti-human IgG-Fc (ICN Pharmaceuticals, Costa Mesa, Calif.) from a 2 μg/ml solution in PBS, pH 7.2-7.4, The plates were covered, and incubated overnight at 4° C. After washing four times with PBS-T, 250 μl Blocking buffer (PBS-T with 3% BSA or 10% normal goat serum) was added to each well, the plate was covered, and incubated at room temperature for 2 hours (or at 4° C. overnight). After washing the plate three times with PBS-T, added in duplicate wells to the anti-human IgG-Fc coated plate was 100 μl/well Xceptor TNFRSF1B::anti-HIL6 samples, positive control anti-human IL-6R(R&D Systems, Minneapolis, Minn.) and negative controls human IgG or human gp130-Fc chimera (R&D Systems), each serially diluted three-fold in Working buffer starting at 300 ng/ml, the plate was covered, and incubated at room temperature for about 1 to 2 hours. After washing the plate five times with PBS-T, added in duplicate wells was 100 μl/well recombinant human sIL-6R(R&D Systems) from a 75 pM solution in Working buffer, the plate was covered, and incubated at room temperature for about 1 to 2 hours. After washing the plate five times with PBS-T, added 100 μl/well anti-human IL-6R-biotin (R&D Systems) from a 100 ng/ml solution in Working buffer, the plate was covered, and incubated at room temperature for about 1 to 2 hours. After washing the plate five times with PBS-T, 100 μl per well horse radish peroxidase-conjugated streptavidin (Zymed, San Francisco, Calif.) diluted 1:4,000 in Working buffer was added, the plate was covered, and incubated at room temperature for 30 minutes. After washing the plate six times with PBS-T, 100 μl per well 3,3,5,5-tetramentylbenzidine (TMB) substrate solution (Pierce, Rockford, Ill.) was added for about 3 to 5 minutes and then the reaction was stopped with 50 μl Stop buffer (1N H₂SO₄) per well. The absorbance of each well was read at 450 nm.

T2 sequence (P01375 77-233 limits assumed): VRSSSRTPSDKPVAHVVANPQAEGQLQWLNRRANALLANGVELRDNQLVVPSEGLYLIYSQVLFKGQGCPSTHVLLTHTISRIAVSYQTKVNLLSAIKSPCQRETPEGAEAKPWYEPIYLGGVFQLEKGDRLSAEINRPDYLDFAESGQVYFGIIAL

Binder	binding result [1]	binding result [2]
Xceptor fusion protein TRU(XT6)-1002 (Fc fusion, also called Xceptor TNFRSF1B::anti-HIL6) LPAQVAFTPYAPEPGSTCRLREYYDQTAQMCCSKCSPGQHAKVFCTKTSDTVCDSCEDSTYTQLWNWVPECLSCGSRCSSDQVETQACTREQNRICTCRPGWYCALSKQEGCRLCAPLRKCRPGFGVARPGTETSDVVCKPCAPGTFSNTTSSTDICRPHQICNVVAIPGNASMDAVCTSTSPTRSMAPGAVHLPQPVSTRSQHTQPTPEPSTAPSTSFLLPMGPSPPAEGSTGDTGEPKSSDKTHTCPPCPAPEAAGAPSVFLFPPKPKDTLMISRTPEVTCVVVDVSHEDPEVKFNWYVDGVEVHNAKTKPREEQYNSTYRVVSVLTVLHQDWLNGKAYACAVSNKALPAPIEKTISKAKGQPREPQVYTLPPSRDELTKNQVSLTCLVKGFYPSDIAVEWESNGQPENNYKTTPPVLDSDGSFFLYSKLTVDKSRWQQGNVFSCSVMHEALHNHYTQKSLSLSPGQRHNNSSLNTRTQKARHSPNSEVQLLESGGGLVQPGGSLRLSCAASGFTFSFYQMHWVRQAPGKGLEWVSGIYPSGGYTKYADSVKGRFTISRDNSKNTLYLQMNSLRAEDTAVYYCARDLGYGSSWYYFDYWGQGTLVTVSSGGGGSGGGGSGGGGSQSALTQPASVSGSPGQSITISCSGTDSDVGGYNHVSWYQQHPGKAPKLIIYDVDHRPSGISNRFSGSKSGNTASLTISGLQAEDEADYYCSSYRSGSTYVFGTGTKVTVL	binds	no binding (tested: Xceptor from 300 ng/ml; sIL-6R 75 pM)
Xceptor fusion protein TRU(XT6)-1058 (Fc fusion) LPAQVAFTPYAPEPGSTCRLREYYDQTAQMCCSKCSPGQHAKVFCTKTSDTVCDSCEDSTYTQLWNWVPECLSCGSRCSSDQVETQACTREQNRICTCRPGWYCALSKQEGCRLCAPLRKCRPGFGVARPGTETSDVVCKPCAPGTFSNTTSSTDICRPHQICNVVAIPGNASMDAVCTSTSPTRSMAPGAVHLPQPVSTRSQHTQPTPEPSTAPSTSFLLPMGPSPPAEGSTGDTGEPKSSDKTHTCPPCPAPEAAGAPSVFLFPPKPKDTLMISRTPEVTCVVVDVSHEDPEVKFNWYVDGVEVHNAKTKPREEQYNSTYRVVSVLTVLHQDWLNGKAYACAVSNKALPAPIEKTISKAKGQPREPQVYTLPPSRDELTKNQVSLTCLVKGFYPSDIAVEWESNGQPENNYKTTPPVLDSDGSFFLYSKLTVDKSRWQQGNVFSCSVMHEALHNHYTQKSLSLSPGQRHNNSSLNTRTQKARHSPNSEVQLLESGGGLVQPGGSLRLSCAASGFTFSMYTMHWVRQAPGKGLEWVSWISPSGGWTKYADSVKGRFTISRDNSKNTLYLQMNSLRAEDTAVYYCAVSPWGGPFDYWGQGTLVTVSSGGGGSGGGGSGGGGSQDIQMTQSPSTLSASVGDRVTITCRASQSISSWLAWYQQKPGKAPKLLIYKASTLESGVPSRFSAGGSGTEFTLTISSLQPDDFGTYYCQQYNSYSLTFGGGTKVEII	binds	no binding (tested: Xceptor from 300 ng/ml; sIL-6R 75 pM)
Xceptor fusion protein TRU(XT6)-1019 (Fc fusion, also called Xceptor TNFRSF1B::anti-HIL6) LPAQVAFTPYAPEPGSTCRLREYYDQTAQMCCSKCSPGQHAKVFCTKTSDTVCDSCEDSTYTQLWNWVPECLSCGSRCSSDQVETQACTREQNRICTCRPGWYCALSKQEGCRLCAPLRKCRPGFGVARPGTETSDVVCKPCAPGTFSNTTSSTDICRPHQICNVVAIPGNASMDAVCTSTSPTRSMAPGAVHLPQPVSTRSQHTQPTPEPSTAPSTSFLLPMGPSPPAEGSTGDTGEPKSSDKTHTCPPCPAPEAAGAPSVFLFPPKPKDTLMISRTPEVTCVVVDVSHEDPEVKFNWYVDGVEVHNAKTKPREEQYNSTYRVVSVLTVLHQDWLNGKAYACAVSNKALPAPIEKTISKAKGQPREPQVYTLPPSRDELTKNQVSLTCLVKGFYPSDIAVEWESNGQPENNYKTTPPVLDSDGSFFLYSKLTVDKSRWQQGNVFSCSVMHEALHNHYTQKSLSLSPGQRHNNSSLNTRTQKARHSPNSEVQLLESGGGLVQPGGSLRLSCAASGFTFSWYLMHWVRQAPGKGLEWVSGIWPSGGHTLYADSVKGRFTISRDNSKNTLYLQMNSLRAEDTAVYYCAREPLLWFGELSYNWFDPWGQGTLVTVSSGGGGSGGGGSGGGGSQDIQMTQSPSSVSASVGDRVTITCRASQGISSWLAWYQQKPGKAPKLLIYAASSLQSGVPSRFSGSGSGTDFTLTISSLQPEDFATYYCQQANSFPLTFGGGTKVEIK	binds	no binding (tested: Xceptor from 300 ng/ml; sIL-6R 75 pM)
Xceptor fusion protein TRU(X6T)-1019 (Fc fusion) EVQLLESGGGLVQPGGSLRLSCAASGFTFSWYLMHWVRQAPGKGLEWVSGIWPSGGHTLYADSVKGRFTISRDNSKNTLYLQMNSLRAEDTAVYYCAREPLLWFGELSYNWFDPWGQGTLVTVSSGGGGSGGGGSGGGGSQDIQMTQSPSSVSASVGDRVTITCRASQGISSWLAWYQQKPGKAPKLLIYAASSLQSGVPSRFSGSGSGTDFTLTISSLQPEDFATYYCQQANSFPLTFGGGTKVEIKTGEPKSSDKTHTCPPCPAPEAAGAPSVFLFPPKPKDTLMISRTPEVTCVVVDVSHEDPEVKFNWYVDGVEVHNAKTKPREEQYNSTYRVVSVLTVLHQDWLNGKAYACAVSNKALPAPIEKTISKAKGQPREPQVYTLPPSRDELTKNQVSLTCLVKGFYPSDIAVEWESNGQPENNYKTTPPVLDSDGSFFLYSKLTVDKSRWQQGNVFSCSVMHEALHNHYTQKSLSLSPGQRHNNSSLNTRTQKARHSPNSLPAQVAFTPYAPEPGSTCRLREYYDQTAQMCCSKCSPGQHAKVFCTKTSDTVCDSCEDSTYTQLWNWVPECLSCGSRCSSDQVETQACTREQNRICTCRPGWYCALSKQEGCRLCAPLRKCRPGFGVARPGTETSDVVCKPCAPGTFSNTTSSTDICRPHQICNVVAIPGNASMDAVCTSTSPTRSMAPGAVHLPQPVSTRSQHTQPTPEPSTAPSTSFLLPMGPSPPAEGSTGD	binds	no binding (tested: Xceptor from 300 ng/ml; sIL-6R 75 pM)
